Assay [1] has as its target T1, 重组人TIGIT蛋白抗原 (human, UniProt Q495A1 21-141, limits assumed).
T1 construct: Made as TIGIT-Fc in 293F, cut with TEV protease and purified; also called TIGIT抗原; 人TIGIT抗原
T1 sequence (looked up): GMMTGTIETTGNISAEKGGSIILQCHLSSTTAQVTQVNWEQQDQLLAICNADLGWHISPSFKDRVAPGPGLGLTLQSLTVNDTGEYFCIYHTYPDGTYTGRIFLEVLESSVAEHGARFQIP
Put plainly: ELISA, TIGIT antigen coated, HRP anti-human IgG. A general note: ELISA stands for enzyme-linked immunosorbent assay.

The target of assay [2] is T1, 重组人TIGIT蛋白抗原. Put plainly: ELISA, TIGIT antigen coated.
Assay [3] deals with T1, 重组人TIGIT蛋白抗原. Kind of assay: ELISA, human TIGIT antigen coated.
The next assay addresses T2, CTLA4抗原 (UniProt P16410 36-161, limits assumed).
T2 sequence (looked up): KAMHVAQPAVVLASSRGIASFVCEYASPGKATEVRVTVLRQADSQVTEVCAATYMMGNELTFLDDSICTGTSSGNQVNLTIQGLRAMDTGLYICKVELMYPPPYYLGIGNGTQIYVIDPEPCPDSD
Kind of assay: ELISA, antigen coated.

A further assay concerns the target T3, LAG-3抗原 (UniProt P18627 23-450, limits assumed).
T3 sequence (looked up): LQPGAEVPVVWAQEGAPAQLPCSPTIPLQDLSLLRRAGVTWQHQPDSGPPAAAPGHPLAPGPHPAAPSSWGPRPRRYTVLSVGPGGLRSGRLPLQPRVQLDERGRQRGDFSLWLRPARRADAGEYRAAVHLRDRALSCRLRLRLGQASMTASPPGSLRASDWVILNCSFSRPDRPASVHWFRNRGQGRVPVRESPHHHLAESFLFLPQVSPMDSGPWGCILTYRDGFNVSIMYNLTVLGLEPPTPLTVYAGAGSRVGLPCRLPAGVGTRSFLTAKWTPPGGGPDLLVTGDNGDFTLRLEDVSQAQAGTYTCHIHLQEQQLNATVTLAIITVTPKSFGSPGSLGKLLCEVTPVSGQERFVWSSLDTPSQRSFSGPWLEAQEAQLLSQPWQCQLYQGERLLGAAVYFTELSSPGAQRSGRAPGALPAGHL
Kind of assay: ELISA, antigen coated.

The next assay addresses PD-1抗原 (UniProt Q15116 25-167, limits assumed). Kind of assay: ELISA, antigen coated.
Another assay addresses PD-L1抗原 (UniProt Q9NZQ7 19-238, limits assumed). Kind of assay: ELISA, antigen coated.

Chain of PD-L1抗原 (Q9NZQ7 19-238 limits assumed): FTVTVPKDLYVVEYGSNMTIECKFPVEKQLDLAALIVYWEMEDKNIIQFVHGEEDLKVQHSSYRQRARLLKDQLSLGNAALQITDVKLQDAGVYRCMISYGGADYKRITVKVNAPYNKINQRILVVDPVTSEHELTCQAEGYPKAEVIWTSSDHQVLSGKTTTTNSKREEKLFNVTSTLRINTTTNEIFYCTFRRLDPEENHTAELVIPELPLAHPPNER
Chain of PD-1抗原 (Q15116 25-167 limits assumed): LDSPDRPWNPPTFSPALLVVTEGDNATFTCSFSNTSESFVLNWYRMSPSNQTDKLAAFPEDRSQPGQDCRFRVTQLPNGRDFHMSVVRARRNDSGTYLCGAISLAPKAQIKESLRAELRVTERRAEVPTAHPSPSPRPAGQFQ

B1: 鼠源抗TIGIT单链抗体mT251 (mT251 scFv-Fc重组蛋白) (scFv, V domains shown)
VH: DVKLKESGPSLVKPSQTLSLTCSVTGDSITSGFWNWIRKFPGNKLEYMGYISYSGSSYYNPSLKSRISITRDTSKNQYYLQLNSVTTEDTATYYCAAGDFGNYGYAMDNWGQGTSVTVSS
VL: DVLMTQSHKFMSTSVGDRVSITCKASQRVTTAVAWYQQKPGQSPKLLIYSASYRYTGVPDRFTGSGSGTDFTFTITSVQPEDLAIYYCQQYYSTPLTFGAGTKLEIK
Consider B1, for which the EC50 (commonly the concentration at which the effect is half-maximal) came to 0.125 µg/mL in the assay with 重组人TIGIT蛋白抗原 [1] and 0.099 µg/mL in the assay with 重组人TIGIT蛋白抗原 [2].

B2: 人源化抗体hmT251 (antibody, V domains shown)
VH: DVRLKESGPGLVKPSQTLSLTCTVSGGSITSGFWNWIRKHPGNGLEYIGYISYSGSSYYNPSLKSRVTISRDTSKNQYSLKLSSVTAADTAVYYCAAGDFGNYGYAMDVWGQGTTVTVSS
VL: DVQMTQSPSSLSASVGDRVTITCKASQRVTTAVAWYQQKPGKSPKLLIYSASYRYTGVPDRFTGSGSGTDFTLTISSLQPEDFATYYCQQYYSTPLTFGGGTKVEIK
notes: also called 人源化抗TIGIT抗体hmT251; 人源化单链抗体hmT251
For the molecule B2, the concentration giving a half-maximal response (EC50) with 重组人TIGIT蛋白抗原 [3] amounted to 0.155 µg/mL; with 重组人TIGIT蛋白抗原 [2], 0.0741 µg/mL. Moreover, the binding result with CTLA4抗原, in the assay with LAG-3抗原, with PD-1抗原 and in the assay with PD-L1抗原 was “no binding” each time.
